# Results as given in patent publication US20160031992A1.
# B1: humanized 1A8 antibody VH1/Vκ1 (antibody, IgG1, V domains shown)
# VH: QVQFVQSGPELKKPGASVKVSCKGSSYTFTDYTMHWVKLAHAKTLEWIGVIDTYYGKTNYNQKFEGRATMTVDKSSSTAYMELARLRSEDSAVYYCARGGFRRGDRPSLRYAMDSWGQGTSVTVSS
# VL: DIVLTQSPDSLAVSLGERATINCRASQSVSISTYSYIHWFQQKPGQPPKLLIKYASNLESGVPDRFSGSGSGTDFTLNIHPVEEEDVGIYYCQHSWEIPYTFGGGTKVEIK
# B2: humanized 1A8 antibody VH1/Vκ2 (antibody, IgG1, V domains shown)
# VH: QVQFVQSGPELKKPGASVKVSCKGSSYTFTDYTMHWVKLAHAKTLEWIGVIDTYYGKTNYNQKFEGRATMTVDKSSSTAYMELARLRSEDSAVYYCARGGFRRGDRPSLRYAMDSWGQGTSVTVSS
# VL: DIVLTQSPDSLAVSLGERATINCRASQSVSISTYSYIHWFQQKPGQPPKLLIKYASNLESGVPDRFSGSGSGTDFTLKISRVEEEDVGIYYCQHSWEIPYTFGGGTKVEIK
# B3: humanized 1A8 antibody VH1/Vκ3 (antibody, IgG1, V domains shown)
# VH: QVQFVQSGPELKKPGASVKVSCKGSSYTFTDYTMHWVKLAHAKTLEWIGVIDTYYGKTNYNQKFEGRATMTVDKSSSTAYMELARLRSEDSAVYYCARGGFRRGDRPSLRYAMDSWGQGTSVTVSS
# VL: DIVMTQSPDSLAVSLGERATINCRASQSVSISTYSYIHWFQQKPGQPPKLLIKYASNLESGVPDRFSGSGSGTDFTLKISRVEAEDVGIYYCQHSWEIPYTFGGGTKVEIK
# B4: humanized 1A8 antibody VH2/Vκ1 (antibody, IgG1, V domains shown)
# VH: QVQLVQSGAEVKKPGASVKVSCKGSSYTFTDYTMHWVKLASAKTLEWIGVIDTYYGKTNYNQKFEGRATMTVDKSSSTAYMELSSLRSEDTAVYYCARGGFRRGDRPSLRYAMDSWGQGTLVTVSS
# VL: DIVLTQSPDSLAVSLGERATINCRASQSVSISTYSYIHWFQQKPGQPPKLLIKYASNLESGVPDRFSGSGSGTDFTLNIHPVEEEDVGIYYCQHSWEIPYTFGGGTKVEIK
# B5: humanized 1A8 antibody VH2/Vκ2 (antibody, IgG1, V domains shown)
# VH: QVQLVQSGAEVKKPGASVKVSCKGSSYTFTDYTMHWVKLASAKTLEWIGVIDTYYGKTNYNQKFEGRATMTVDKSSSTAYMELSSLRSEDTAVYYCARGGFRRGDRPSLRYAMDSWGQGTLVTVSS
# VL: DIVLTQSPDSLAVSLGERATINCRASQSVSISTYSYIHWFQQKPGQPPKLLIKYASNLESGVPDRFSGSGSGTDFTLKISRVEEEDVGIYYCQHSWEIPYTFGGGTKVEIK
# B6: humanized 1A8 antibody VH2/Vκ3 (antibody, IgG1, V domains shown)
# VH: QVQLVQSGAEVKKPGASVKVSCKGSSYTFTDYTMHWVKLASAKTLEWIGVIDTYYGKTNYNQKFEGRATMTVDKSSSTAYMELSSLRSEDTAVYYCARGGFRRGDRPSLRYAMDSWGQGTLVTVSS
# VL: DIVMTQSPDSLAVSLGERATINCRASQSVSISTYSYIHWFQQKPGQPPKLLIKYASNLESGVPDRFSGSGSGTDFTLKISRVEAEDVGIYYCQHSWEIPYTFGGGTKVEIK
# B7: humanized 1A8 antibody VH3/Vκ1 (antibody, IgG1, V domains shown)
# VH: QVQLVQSGAEVKKPGASVKVSCKGSSYTFTDYTMHWVRLASAKTLEWIGVIDTYYGKTNYNQKFEGRATMTVDKSSSTAYMELSSLRSEDTAVYYCARGGFRRGDRPSLRYAMDSWGQGTLVTVSS
# VL: DIVLTQSPDSLAVSLGERATINCRASQSVSISTYSYIHWFQQKPGQPPKLLIKYASNLESGVPDRFSGSGSGTDFTLNIHPVEEEDVGIYYCQHSWEIPYTFGGGTKVEIK
# B8: humanized 1A8 antibody VH3/Vκ3 (antibody, IgG1, V domains shown)
# VH: QVQLVQSGAEVKKPGASVKVSCKGSSYTFTDYTMHWVRLASAKTLEWIGVIDTYYGKTNYNQKFEGRATMTVDKSSSTAYMELSSLRSEDTAVYYCARGGFRRGDRPSLRYAMDSWGQGTLVTVSS
# VL: DIVMTQSPDSLAVSLGERATINCRASQSVSISTYSYIHWFQQKPGQPPKLLIKYASNLESGVPDRFSGSGSGTDFTLKISRVEAEDVGIYYCQHSWEIPYTFGGGTKVEIK
# B9: humanized 1A8 antibody VH4/Vκ1 (antibody, IgG1, V domains shown)
# VH: QVQLVQSGAEVKKPGASVKVSCKGSSYTFTDYTMHWVRLASAKTLEWIGVIDTYYGKTNYNQKFEGRATITVDKSSSTAYMELSSLRSEDTAVYYCARGGFRRGDRPSLRYAMDSWGQGTLVTVSS
# VL: DIVLTQSPDSLAVSLGERATINCRASQSVSISTYSYIHWFQQKPGQPPKLLIKYASNLESGVPDRFSGSGSGTDFTLNIHPVEEEDVGIYYCQHSWEIPYTFGGGTKVEIK
# B10: humanized 1A8 antibody VH4/Vκ2 (antibody, IgG1, V domains shown)
# VH: QVQLVQSGAEVKKPGASVKVSCKGSSYTFTDYTMHWVRLASAKTLEWIGVIDTYYGKTNYNQKFEGRATITVDKSSSTAYMELSSLRSEDTAVYYCARGGFRRGDRPSLRYAMDSWGQGTLVTVSS
# VL: DIVLTQSPDSLAVSLGERATINCRASQSVSISTYSYIHWFQQKPGQPPKLLIKYASNLESGVPDRFSGSGSGTDFTLKISRVEEEDVGIYYCQHSWEIPYTFGGGTKVEIK
# B11: humanized 1A8 antibody VH4/Vκ3 (antibody, IgG1, V domains shown)
# VH: QVQLVQSGAEVKKPGASVKVSCKGSSYTFTDYTMHWVRLASAKTLEWIGVIDTYYGKTNYNQKFEGRATITVDKSSSTAYMELSSLRSEDTAVYYCARGGFRRGDRPSLRYAMDSWGQGTLVTVSS
# VL: DIVMTQSPDSLAVSLGERATINCRASQSVSISTYSYIHWFQQKPGQPPKLLIKYASNLESGVPDRFSGSGSGTDFTLKISRVEAEDVGIYYCQHSWEIPYTFGGGTKVEIK
# Legend:
# [1] = target: integrin αvβ6 on NIH3T3β6 cells (NIH3T3 cells transfected with β6); test: FACS on NIH3T3β6 cells, geometric MFI against antibody concentration
# [2] = target: biotinylated αvβ6; test: inhibition of biotinylated αvβ6 binding to plate-coated LAP, streptavidin-HRP
Binder,EC50 relative to chimeric antibody (ratio to chimeric antibody) [1],IC50 relative to chimeric antibody (ratio to chimeric antibody) [2]
B1,1.13,1.02
B2,1.07,1.19
B3,1.04,1.05
B4,3,1.48
B5,2.4,1.32
B6,2.46,0.98
B7,2.86,1.07
B8,2.41,1.2
B9,3.57,1.93
B10,3.24,2.3
B11,2.96,1.74
